In a protein production outcome set (Wang et al. 2014) one finds protein production data, which are given here for 27 sequences.

The series can be described thus: label from the status in PepcDB records.

As to “PSEAPERVMVPIANPKTVESLLDLAFIVRGQSSEPLYPLTVAQGTNGDAESEVAKAEKVLAHAVTYAAGASVPIQMLTRLDPNIASGIIRAIEETRITTLVIGWNGKRSTPQLIFGGILDQLLERTEEMVLVSK”, the protein production entry is “failed”.

“PSEPVTDEYLTSVTIGERKPLNDRIQLAEYDLRWPSMFSVAADKIRSALSEKALLVEHVGSTSVPGLAAKLIIDMLLGVTDSADEKSYVLPLEQQGFVLQAREPGWYEHRFFRLKSGDMEWHLHVFSAECEEIDRMLAFRNWLRVHDDDRQRYENVKRTLAARTWKHMQNYADAKSDIVREILGRA”: the protein production entry is given as “failed”. With “PTNIHKIHEVQKKLQEEVSIVLIDIADIIVNPKKENGYSRDLYTLNSLIDSSISETYDNINNTLLSDTRFFLEHMDIIKSQRDILENLYSYVSQLNSTPPQAHILSAFIHKIGYTEFEAETGNLLLEELKRLMISMKNQPLPVDRTEFENRAILFLCLTELKQFLVNRKHAQML”, the protein production result is listed as “not failed”. As for “PVAGPYITFTDAVNETTIMLKWMYIPASNNNTPIHGFYIYYRPTDSDNDSDYKKDMVEGDRYWHSISHLQPETSYDIKMQCFNEGGESEFSNVMICETKAR”, the protein production entry is “not failed”.

For “PVRLEGDQVAAAEALVAAVAADSYSTTLLKGVTGSGKTEVYLEAVAECLRRGRQALVLLPEIALTSEFLARVEARFGARPAEWHSGVTATERRRLWRMVSEGQAQFVAGARSALFLPFRDLGLVVVDEEHDTSYKQEEGALYNARDMAVLRASICGCPAVLASATP”, the protein production result is given as “failed”. The result for “QAAPSQVVVIRQERAGQTSVSLLWQEPEQPNGIILEYEIKYYEKDKEMQSYSTLKAVTTRATVSGLKPGTRYVFQVRARTSAGCGRFSQAMEVETGKP” reads “not failed”; that for “QDHYKVLGLSKLRWQATSDEIRFCYRQKVLKHHPDKKKHRGIVMEKEEYFTCITKAYEQVGMSDVK”, “failed”.

In the case of “QERLKITALPLYFEGFLLIKRSGYREYEHYWTELRGTTLFFYTDKKSIIYVDKLDIVDLTCLTEQNSTEKNCAKFTLVLPKEEVQLKTENTESGEEWRGFILTVTELSVPQNVSLLPGQVIKLHEVLEREKKRRIE”, the protein production entry is on record as “not failed”.

Regarding “QGLLRAIPSITEDMPRLPTIPGNPPSALINHQGCPFRDRCDYRLARCQAETPKFMPLNGRQSIACHVKAQSSISLIHQSA”, the protein production result was “failed”. “QHTLKQFAADSALTTTTPLCSEVPLFDINALGDWTYLGTSLPAKFAKLFASILHCIDDEYFLITPVEKVRVQVEDAPLLIVDFERAQPHSLLNVSTSIGTLHHNVDIKQMKLTDDSVYLPLERGLWGKLGRACYYNFVNEFNLSDLNEQ”: the protein production entry is on record as “not failed”. As for “QIRMIAAIAHMGGHDLKDDRVKAMVYACLTGNAAKDILKDIGIVVGRKLTENAIKSISGKTITKINQAVGFRLLTKFGEKG”, the protein production result is on record as “failed”.

In the case of “QKGWFPASHVKLLGPSSERATPAFHPVCQVIAMYDYAANNEDELSFSKGQLINVMNKDDPDWWQGEINGVTGLFPSNYVKMTTDS”, the protein production entry is recorded as “not failed”. On to “QKSVRVGISFDISEQKEGEALFEIISQNVTDVIWVYDLKLNRFRYISPSVEAMRGLPKEEAEAMSLEETLTPSSYQRAMQILEGERLRLSNPSHREIKIFSEFFDQYTHDGEVIETEVTARVVQDEG”, for which the protein production entry is on record as “failed”.

As for “QKVEFRKRMEKEVSDFIQDSGQIKKKFQPMNKIERSILHDVVEVAGLTSFSFGEDDDCRYVMIFKKEFAPSDEELDSYRRG”, the protein production entry is on record as “not failed”. The result for “QLTVRRVAEHDLAALSEKAGGPVSIGTRDRLQVVYVDTIHDRGNNGAKPDIGSSRPLLHTAMGRALLYTFDAAERELLMPLLLEQEPQQGDAARAALEEAFAQIARTGFCTSYGSWRPELAGLAAPLRYRAGDLPFAINLTLPIDAVKDGRAEQEFGPYLARLAQSIDRRLGVDV” reads “failed”; that for “QNHFHVFVGDLSPQITTEDIKAAFAPFGRISDARVVKDMATGKSKGYGFVSFFNKWDAENAIQQMGGQWLGGRQIRTNWATRKPPAPKSTYES”, “failed”. “QSNQAWFGNDAFFNAVCFNEAVAKQLNLPKPTSWEDLTKPVYKGHIVMPNPASSGTGYMQVSAWLQNMGEDQAWNYMRDLDKNIAHYTHSGSKPCVQAGMGEVAIGISMASRGAKLKTQGAPLAVITPKGIGWESEAVGLVKESDAAKRVVDWSISKAANELYVEMYPVVGH”: the protein production entry was “failed”.

As to “QSYSGGIRLDTLFIDEGFGSLDPESLDLAIQTLVDLQQTGRMIGVISHVSELKEQMALRIDVEPSRFGSTVSVKSQMLISK”, the protein production result is reported as “failed”. “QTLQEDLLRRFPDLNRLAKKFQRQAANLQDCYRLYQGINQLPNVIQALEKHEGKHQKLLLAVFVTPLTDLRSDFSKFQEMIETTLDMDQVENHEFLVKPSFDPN”: the protein production entry was “failed”. As to “QVSDEDVMLMIRQGAKKGVFESVEYEMISRIFRMSDKRASALMTPRNEIEWLDLERPDEELVARIKASGRSRFPVAKGSLDELQGVVRSLDLVNFSLSSKGSIREAIRASMKPPLFVPESVPAFHVLELFKKNRAHMALVIDEHGSVQGAITLTDVLESIVGDVPADDMEGD”, the protein production result is reported as “failed”. For “QYRLRQLPEVSGAMVVMDPLTGRVLAMVGGFSFDQSQFNRATQAYRQPGSSFKPLVYSAAMDNGYTPSTVVIDAPIEIDQGQGVGVWRPENYSTGKYYGPTTLRNALQRSLNTVTVRLAQDIGMPLIGEYAKRFGVYDDLPNYLSYALGAGETTVMRMVTAYSMFANGGRRVKATLIDRIQDRYGHTIFKHDQRECRGCEAPNGWKNQPEPQLVDRREQVLDPMTAYQITSMMEGVVQAGTATVLREVGKPIAGKTGTTNDEKDAWFIGFSPDLVCGVYIGYDKPRNLGRGATGGHLAAPIAKDFFKLALAEKPAVPF” the value was “failed”. For “RAAAALAAGALALSLTACGGDEDNGGGDGGDEGGGAKQPASSVTLPKLDGESLEVAAVWTGTEQENFKKVLAEFEKRTGAKVTFVPAQDPIINFLGSKIAGGAPPDVAMLPQPGAIKQAVDKGWAKPLGAEATKELGENYSQGWQDIGKVGGKQYGVYYKAANKSLIWYNAQVFENAGAAEPKTWDELLNAAQMVYDSGVTPFSVGGADGWTLTDWFENVYLSQAGPEKYDQLAKHEIKWTDPSVKDALTTLAEIWGKKDFVAGGASGALQTEFPASVTQTFTGGDQPKAGMVYEGDFVQVNIGETKAKVGTDAKVFPFPAVGDTAPVVSGGDAAVVFKDSKAAQALATWLASPDAAGIQAKLGGFLSPNKSIDSSVYPNEVQKKIAEALVAAGDDFRFDMSDQAPQAFGGTPGKGEWKTLQDFLKNPKDVAGAQAKLEADAAAAYG” the value was “failed”; for “RAKAFIDAANQYSINELYLISHALLETGNGTSALANGLTYNGKTVYNMYGIGAYDSNPNYYGAKYAYEQGWFTPEAAIIGGAKFIGSSYIHNTAYNQDTLYKMRWSATATHQYATDIGWAYKQVNRMYSLYSLLDG”, “not failed”; for “RATPSGMLRINASVQAGRAVAPLVLAFLRRYPEMRVDLVTEGRLLDIVAEGFDMGIRPADLVPRDMIALPLGLPVRHAVVASPDWLVRHPEPRSPADLDPDACLRVRLPNGALLRWPFQKDGVPLPFEASGRLTVDEAAIAR”, “failed”.

As to “RDEVAGILRLGLSQSFGTMHIIPAIDKLRNQYPDLQVEVRLFDHQADMLKDGLDLWVTNFEDLPEGYVAQRLADSNFVLAASPDYLIDKKVPHHPLDLVEHNCLTYQ”, the protein production result is reported as “failed”.

Regarding “REVPRCLADLGNGSVHGYRAGRVLSDSGPTGRVGEELMRSFASFFVRTASVPVAELPARPEGWPRDGDTQGFLDWLVHFTERRVHRPNRDRFGALFDAVGVPEDAMARFAAGHRCRAVRPFRLLHTDVHRANVVVRGRRLAVIDWELAILGDPLHDLATHLVRMAYGKEEQGRMVDLWAEAMADAGFTDLTAGLHEDLPVYVAFEYAQSVFPDVMRAAIDLPQ”, the protein production result is recorded as “failed”. Consider “RFHNDGEALLAAFLAGDLAGIGAMTPEPAALEPARRLRRFYVRPDMRRRGVATALASALIHEGFDSVRLLTVNARAADAAAPFWEAQGFEPDTIGPWTH”, for which the protein production entry is reported as “failed”.
